For the experiment, the target named is BMP-2 (UniProt P12643). Kind of experiment: cell-based or functional assay.
UniProt P12643, sequence (P12643 283-396 limits assumed): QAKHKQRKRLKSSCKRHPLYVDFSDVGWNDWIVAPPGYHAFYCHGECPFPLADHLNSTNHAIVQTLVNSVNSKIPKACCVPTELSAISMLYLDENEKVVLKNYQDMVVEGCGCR

“DRAGON.Fc (soluble DRAGON fused to the Fc portion of human immunoglobulin) (from UniProt Q6NW40 46-409) (Fc fusion)” gave an inhibition of BMP-2 induction of hepcidin promoter activity (luciferase) by 20% pooled serum from DRAGON.Fc treated mice; serum from mock treated control mice inhibited by about 30% of over 70%.

Values taken from patent US20140199314A1.
